Positions count from the first letter of the chain named. In names and notes the source's numbering stands. One block for each binder: values may come before it.
Assays:
[1] = biological target: T1, human IL-17A (recombinant) (human, UniProt Q16552); experiment: cell-based or functional assay
[2] = biological target: T2, insulin (Homo sapiens (assumed), UniProt P01308); experiment: ELISA; polyspecificity assay; plates coated with 5 μg/ml antigen, blocked with PBS 0.5% BSA; 100 nM antibody 1 h at RT; anti-human Fc-HRP; conditions: both partners purified
T2 construct: insulin B chain; insulin A chain

[3] = biological target: T3, human IL-2 (Homo sapiens, UniProt P60568); experiment: as above; conditions: both partners purified
T3 construct: human interleukin-2; also called hIL-2

[4] = biological target: T4, hTNFR2 (Homo sapiens, UniProt P20333); experiment: as above; conditions: both partners purified
T4 construct: human TNF receptor 2

[5] = biological target: T5, BSA (Bos taurus, UniProt P02769); experiment: as above; conditions: both partners purified
T5 construct: bovine serum albumin, printed only as BSA; a BSA coating is not described

[6] = biological target: T1, human IL-17A (recombinant); experiment: SPR; Biacore T100, CM5 chip; tested antibody captured on anti-human IgG to about 500 RU; IL-17A analyte in PBS 0.05% tween, two- or three-fold dilutions, multi-cycle kinetics; conditions: both partners purified
[7] = biological target: T6, biotinylated human IL-17A (Homo sapiens, UniProt Q16552, biotin (site not stated)); experiment: flow cytometry on cells; scFv displayed on yeast EBY-100; incubated with soluble antigen (biotinylated human IL-17A in PBS 0.1% BSA, 1 h), labelled with anti-Myc-FITC (expression) and streptavidin-APC (binding); conditions: one partner purified
T6 construct: human interleukin-17A; also called hIL-17A; biotinylated IL-17A

[8] = biological target: T7, IL-1β (used in the yeast display FACS analysis) (Homo sapiens, UniProt P01584); experiment: as above; conditions: one partner purified
T7 construct: interleukin-1 beta; Species is said only of the IL-1β of the crystal (human)

[9] = biological target: T8, recombinant human IL-1β (Homo sapiens); experiment: crystal structure; AAL160 Fab with a 1.5-fold excess of recombinant human IL-1β, complex purified by SEC; 3.30 Å; conditions: both partners purified
T8 construct: human interleukin-1 beta; also called IL-1b

T3 sequence (P60568 21-153): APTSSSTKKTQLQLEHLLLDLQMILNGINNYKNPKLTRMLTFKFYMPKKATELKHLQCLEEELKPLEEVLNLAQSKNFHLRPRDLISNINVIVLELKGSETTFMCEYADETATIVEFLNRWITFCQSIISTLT
T4 sequence (P20333 23-461): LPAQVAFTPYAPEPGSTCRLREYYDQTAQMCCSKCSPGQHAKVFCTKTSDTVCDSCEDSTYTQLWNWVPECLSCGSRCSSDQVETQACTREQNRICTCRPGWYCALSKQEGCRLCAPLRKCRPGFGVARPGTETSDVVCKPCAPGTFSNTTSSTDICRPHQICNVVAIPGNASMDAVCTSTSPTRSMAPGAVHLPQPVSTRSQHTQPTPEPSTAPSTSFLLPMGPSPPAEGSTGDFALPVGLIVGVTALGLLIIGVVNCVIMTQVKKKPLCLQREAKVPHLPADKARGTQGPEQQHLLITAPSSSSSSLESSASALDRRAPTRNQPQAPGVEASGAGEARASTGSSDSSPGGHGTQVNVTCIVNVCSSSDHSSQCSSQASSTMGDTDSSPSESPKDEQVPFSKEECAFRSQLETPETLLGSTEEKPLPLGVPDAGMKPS
T6 sequence (Q16552 24-155): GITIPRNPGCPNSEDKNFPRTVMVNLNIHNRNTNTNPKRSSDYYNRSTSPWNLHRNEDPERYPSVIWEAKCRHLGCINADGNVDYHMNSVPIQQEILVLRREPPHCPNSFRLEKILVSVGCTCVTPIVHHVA
T1 sequence (Q16552 24-155): as above
T2 sequence (P01308 whole entry, looked up): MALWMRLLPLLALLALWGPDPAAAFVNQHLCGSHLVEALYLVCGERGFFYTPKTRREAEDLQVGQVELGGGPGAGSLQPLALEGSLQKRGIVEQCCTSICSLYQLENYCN
T5 sequence (P02769 25-607): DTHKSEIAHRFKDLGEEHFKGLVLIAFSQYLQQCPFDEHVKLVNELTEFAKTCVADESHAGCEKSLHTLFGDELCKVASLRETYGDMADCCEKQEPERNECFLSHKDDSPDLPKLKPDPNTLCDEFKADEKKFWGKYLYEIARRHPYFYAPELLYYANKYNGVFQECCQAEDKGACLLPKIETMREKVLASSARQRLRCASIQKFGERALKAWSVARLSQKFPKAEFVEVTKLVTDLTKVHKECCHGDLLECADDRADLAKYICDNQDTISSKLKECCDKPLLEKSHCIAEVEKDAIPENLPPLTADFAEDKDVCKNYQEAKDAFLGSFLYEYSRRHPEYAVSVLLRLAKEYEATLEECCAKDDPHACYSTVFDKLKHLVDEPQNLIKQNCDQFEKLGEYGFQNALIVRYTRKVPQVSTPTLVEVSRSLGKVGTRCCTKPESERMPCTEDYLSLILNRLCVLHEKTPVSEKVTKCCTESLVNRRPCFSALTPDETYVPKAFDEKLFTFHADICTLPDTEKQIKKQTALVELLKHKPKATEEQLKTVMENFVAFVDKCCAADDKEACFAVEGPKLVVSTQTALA

- IC50 of inhibition of IL-17A dependent IL-6 secretion by BJ fibroblasts (1 nM IL-17A; blocks IL-17A binding to IL-17RA on the cells) [1]: 4.8 nM
- binding result [2]: no binding (tested: 100 nM antibody)
- binding result [3]: no binding (tested: 100 nM antibody)
- binding result [4]: no binding (tested: 100 nM antibody)
- binding result [5]: no binding (tested: 100 nM antibody)
- Kd [6]: 0.75 nM
B1: BDG11.001 (clone 11.4C_11.001 as soluble human IgG1) (antibody, V domains shown)
VH: EVQLVQSGAEVKKPGESLKISCKGSGYSFTSYWIGWVRQMPGKGLEWMGIIYPSDSDTRYSPSFQGQVTISADKSISTAYLQWSSLKASDTAMYYCARYPNYGAFDIWGQGTMVTVSS
VL: EIVLTQSPATLSLSPGERATLSCRASQSVWSYLAWYQQKPGQAPRLLIYDASNRATGIPARFSGSGSGTDFTLTISSLEPEDFAVYYCQQYFYWGWPFGQGTKLEIK
notes: as the VH of m6 (clone 11.4C_11.001); the same heavy chain stands in 11.003 (PDB 7Z2M); changes are against the VH of AAL160; human IgG1 heavy-chain constant region, from the plasmid pSF-CMV-HuIgG1_HC; as the VL of m6 (clone 11.4C_11.001); has W30, Y93, W94; the light chain of 11.003 in PDB 7Z2M differs from it at position 30 (Phe for Trp); as in the light chain of 11.003 in PDB 7Z2M; IgG1; also …

- binding result [7]: no binding
- binding result [8]: binds
B2: AAL160 scFv displayed on yeast (scFv, V domains shown)
VH: B1 VH with P100T, Y102W, G103D
VL: B1 VL with W30S, Y91R, F92S, Y93N, G95M, W96F
notes: VH of AAL160; also held by the deposited AAL160 Fab structures; three repeats of the G4S linker between VH and VL; VL of AAL160; scFv in heavy to light-chain orientation; VH 99% identical to IGHV5-51*01, VL 100% identical to IGKV3-11*01; also called template antibody; anti-IL-1β antibody; source: yeast surface display, EBY-100, induced with galactose

- binding result [7]: binds
B3: clone 11.4_C12 scFv displayed on yeast (scFv, V domains shown)
VH: B1 VH
VL: B1 VL with G95S
notes: as the VH of m1 (AAL160) with changes in CDR H3; three repeats of the G4S linker between VH and VL; as the VL of m1 (AAL160) with changes; has W30, Y93 and W94 (light-chain numbering); also called 114_R5_C12; source: yeast surface display, EBY-100, induced at 37 to 40 °C

- IC50 of inhibition of IL-17A dependent IL-6 secretion by BJ fibroblasts (1 nM IL-17A; blocks IL-17A binding to IL-17RA on the cells) [1]: 286 nM
- binding result [2]: no binding (tested: 100 nM antibody)
- binding result [3]: no binding (tested: 100 nM antibody)
- binding result [4]: no binding (tested: 100 nM antibody)
- binding result [5]: no binding (tested: 100 nM antibody)
B4: BDG11.007 (human IgG1) (antibody, V domains shown)
VH: B1 VH
VL: B1 VL with Y93N
notes: as the VH of m7 (BDG11.001); human IgG1 heavy-chain constant region, from the plasmid pSF-CMV-HuIgG1_HC; as the VL of m7 (BDG11.001) with one substitution; light-chain numbering; as in the light chain of 11.003 in PDB 7Z2M; IgG1; single mutant of BDG11.001; source: Expi-CHO, transfected, purified from the supernatant (protein A beads); copies: 2 + 2

- IC50 of inhibition of IL-17A dependent IL-6 secretion by BJ fibroblasts (1 nM IL-17A; blocks IL-17A binding to IL-17RA on the cells) [1]: 50.5 nM
- binding result [2]: no binding (tested: 100 nM antibody)
- binding result [3]: no binding (tested: 100 nM antibody)
- binding result [4]: no binding (tested: 100 nM antibody)
- binding result [5]: no binding (tested: 100 nM antibody)
B5: BDG11.006 (human IgG1) (antibody, V domains shown)
VH: B1 VH
VL: B1 VL with W94N
notes: as for B4

- binding result [7]: binds
B6: clone 11.4_C13 scFv displayed on yeast (scFv, V domains shown)
VH: B1 VH with P100T, G103E
VL: B1 VL with Y91S, G95P, W96F
notes: as the VH of m1 (AAL160) with changes; has no T100P; three repeats of the G4S linker between VH and VL; as the VL of m1 (AAL160) with changes; source: yeast surface display, EBY-100, induced with galactose

- IC50 of inhibition of IL-17A dependent IL-6 secretion by BJ fibroblasts (1 nM IL-17A; blocks IL-17A binding to IL-17RA on the cells) [1]: 33.9 nM
- binding result [2]: no binding (tested: 100 nM antibody)
- binding result [3]: no binding (tested: 100 nM antibody)
- binding result [4]: no binding (tested: 100 nM antibody)
- binding result [5]: no binding (tested: 100 nM antibody)
B7: BDG11.003 (human IgG1) (antibody, V domains shown)
VH: B1 VH
VL: B1 VL with W30F
notes: as the VH of m7 (BDG11.001); human IgG1 heavy-chain constant region, from the plasmid pSF-CMV-HuIgG1_HC; as the VL of m7 (BDG11.001) with W30F; that 11.003 is the W30F variant follows from the sentence that 11.003 has Phe30 in L1 where AAL160 has Ser; light-chain numbering; IgG1; seven mutations against AAL160; source: Expi-CHO, transfected, purified from the supernatant (protein A beads); …

- binding result [7]: binds
- binding result [8]: no binding
B8: clone 11.1_C5 scFv displayed on yeast (scFv, V domains shown)
VH: B1 VH with P100T, A104N
VL: B1 VL with S31W, Y91G, G95P
notes: as the VH of m1 (AAL160) with changes; three repeats of the G4S linker between VH and VL; as the VL of m1 (AAL160) with changes; First-generation clone from library A_11.1; source: yeast surface display, EBY-100, induced with galactose

- IC50 of inhibition of IL-17A dependent IL-6 secretion by BJ fibroblasts (1 nM IL-17A; blocks IL-17A binding to IL-17RA on the cells) [1]: 163 nM
- binding result [2]: no binding (tested: 100 nM antibody)
- binding result [3]: no binding (tested: 100 nM antibody)
- binding result [4]: no binding (tested: 100 nM antibody)
- binding result [5]: no binding (tested: 100 nM antibody)
B9: BDG11.004 (human IgG1) (antibody, V domains shown)
VH: B1 VH
VL: B1 VL with W30S
notes: as for B4

- binding result [9]: binds
B10: AAL160 Fab (Fab, V domains shown)
VH: B1 VH with P100T, Y102W, G103D
VL: B1 VL with W30S, Y91R, F92S, Y93N, G95M, W96F
notes: Fab heavy-chain fragment of AAL160 after papain digestion; light chain of AAL160; also called parent AAL160 Fab; source: papain digestion of AAL160 at 37 °C, Fab purified over Protein A Sepharose Fast Flow

- binding result [7]: binds
- binding result [8]: no binding
B11: clone 11.1_C3 scFv displayed on yeast (scFv, V domains shown)
VH: B1 VH with P100T, A104N
VL: B1 VL with Y91G, G95P
notes: as the VH of m1 (AAL160) with changes in CDR H3; numbers count on the scFv; three repeats of the G4S linker between VH and VL; as the VL of m1 (AAL160) with changes in CDR L1 and L3; First-generation clone from library A_11.1; nine mutations against AAL160, eight in H3 and L3 and one in L1; source: yeast surface display, EBY-100, induced with galactose

From paper PMC10542344 (Communications Biology, 2023)
